Experimental findings from a protein production outcome set (Wang et al. 2014) are described below.

This data set is described as follows: label from the status in PepcDB records.
On to “MLTDRELLILEEIVREYTENGQPIGSKTLMNNLPVKVSSATIRNDMAKLEEMGLIEKMHSSSGRIPSLMGYRYYVDHLLSPKKLNQSEAQQIQKGLGMHFREVDDIVRTSAEMLSNLTHYTALTLKPDQKDATLDGFRMVPLGGNQVMLILVSSNGDVTSQQFSIPRGMNSETVERVLRIMNDRLIGETLDQVYYHLKTDIPKIVEHYLHSNDGIIDIFENVVAQSSQDRYFIGGKLNILNFSKNVDVSSIRGLLTLFNENDQLDGLLGNNQSDLDVKIGDELSNALLKDFSLITATYDVGSRGKGLIAILGPTSMQYSKTLGLLDTFRDQLSNRMLEYYKHLDDS”, for which the protein production result was “failed”.
In the case of “MLTENYNKQAIAQAFGRAAGCYDRFAELQRTSGERLLALMPAHSGLQVLDAGCGTGHFSRYWRQAGRNVTALDLSAEMLAYAREQHAADRYLEGDIENLPLADSCVDICYSNLAVQWCDSLPRALGELYRITRPGGVIAFATLADGSLSELSQAWQRLDGTQRTNRFLPHSVIDAACQPYRHHLLQEREVCLFPDVLALMKSLKGIGATWLHEGRTPGLLSRARLAALSACYPQEQGGYPLSYQLVYGVIYRDLEHHHHHH” it was “failed”; in that of “MLTGIGAIVFDLDGTLYQSESLGGQIAACADRYLADLLSVSPEEAGEIVRRVRRELTARFGREASLSDACRELGGDLRELHRRFAAEVAPEPHLRRDSRVVQLLRTLGANRELYLYTNNNRALSGRIMDAIGVTGLFRRVVTIEDSWRPKPDLQALEALFAALGRKPSECLFVGDRYDIDLRLPAELGCSVYLSRTVDELLGLTLPLSEEQQ”, “failed”.
In the case of “MLTIREIQSLVHKGEPGQWSHTKALYFFIAPSGRPFWAIRYMLKGRRRQMSLTDSIPATVRELKQIELLSETEREKVRKGIDPLAEREAAKAASPEPVRQLVTFKSVALDYIAANRGGWKNAKHVQQWENTLATYVYPVIGHLEPQSITTAEVLKILQPLWATKRETASRVRSRVETIIGAAKAKGMSEKPEIWANHHNPARWADNLEFWLNGKQEKNHFSAMPYPEIPAFAQSIAEREDYSTKALQFLILTATRTNETLGAEWSEIDTEKAVWTIPASRMKSGKEHRVPLSSEALKLVASLLRIEGNPYLFPGAIRNKSLSNMALLMVMRGLKLGHYVPHGFRSAFRDWAAEETVYPNHIVEMALAHTIKNKVEAAYRRGDLMEKRRQLMEDWSAYLASAR” it was “failed”; in that of “MLTKFKSLPKAVYAILALSFLLHVFCLVKQPGLDGELVKVTYGANDAFNYSLTAEQLLKHGVFGYVYLEPSEVPGKNAYITPGQPLLLAGAMIISDITSIPYYYVATVINMIMNLCTVLLVFLIGKELFEKNIYGIVASILYAIYPSNYTYFRTLLTEVPSIFLLALCVYVFVLAWKYNKVKFHIWFGIVVSILLMFRPNPAPMMLIPVLVVLFTYGFKDSIRIGLLWFIGPFFIIGAWVVRNYLALNQFILFSTQGADPLIAGADPFNKIGYENIVNEMRAKGLDDKGAYAKELIKNGFKTDFTYWFSWFTVGKTIELFKTAPAVDQYRIHNFMQLCHRVFIIGTFLSSFCFMLNSFKHKRVMMLVASSIIYIIFSNLFLAINRYGFFINPLMCLILAYGLIHIVQKLPFFRTNQA”, “failed”; in that of “MLTNPTYGLTLHAQGPVPAEVFPLPTPPRSSRVPASTNRGGPPPQRGGPRPSGRPPRPPVRRKKPRWAMRAVTALSVVVLASAGIGHAVLSSLDSDISRFDAFKDMKNRPRAGDGMNVLMVGTDGRDEITEEERRKYRLGGAPCHCTDTIMIVHISEDRERASVVSLPRDSYAETPGHTDRTTGEHHKGHPIKLNAAYAEGGPQLTIRTVENMTRVKIDHYLEVDFTSFMKTVDVLGGVRICTVQPLKDSYTGLDLPAGSHTLMGGQALQYVRARHLDGASDLSRMKRQQRFLAALIDRATSSGILLNPLKFRDVTRAVLGSVRADQGFGTDELLTLGRAMRNFSPSSSEFTTVPIGQMGYAVKGVGSTLKWDPAKSERLFDALREDEPLAAPKPKGPAPVRVPVDPKQIRVQVENGTRTSGLGKRVDDALAATGFRTTRAPRNAEDRAVGRTVVAYDPRWDQSAKSLAAALPGSELKPVKGQGATLKVIAGADFEKVAKVRPADPPQESGTVVRGDEVVCGKE”, “failed”.
Turning to “MLTNSINYSELSDVAAFVCVVQTGSFTAAAEQLNTSKSVISKYITRLEKRLGVKLLARTTRRLTLTEIGRTFYEGSRQGLEAIDNAEEAVSFLQGKPRGTLKINAPLSFGALHIAPALEEFIHRYPEMQIDLRFDDKKIDMIKDGFDLTVRITHQLEGNLIARRIAPCHHALVAAPNYLAKRGTPKRPEDLVAHNVITYQYQQSPWEWEFTAAKSKPKRVRVNGSVQMNNSLAIREAVLAGVGISRMPTFAVGEDIKSGRLIQLLPKYSLLEHSIYLVFPERNHMAPKTRAFIDYMVKIMEGKPSWDRF”, the protein production result is “failed”.
To “MLTNVVAVLLDGVHPFELGVVCEVFGIDRSDEGLPVYEFAVASAEGPTLRTHAGFSLRTEHGLERLETADLITLPAGNSYVSRGYPPELLDALRRAVDRGARLLSVCSGVFVLGAAGLLDGRRCAVHWHHADELARQYPKAIVEPDVLYVDEDPVITSAGTAAGIDACLHIVRKEQGPEVANAIARRMVVPPHRDGGQAQYIERPLPRSPCDTVGEVLVWMEQHLDEEVTVEQLAARAHMSPRTFARRFQQETGTTPYRWILRQRVLLAQRLLEVTDETMDAIAGRTGFGTAAALRHQFVRSLGTTPNAYRRTFRGPATGPLGLAG” belongs “failed”; to “MLTPRFDIQPAVSVILPTFDRAPLLASAIESVVAQNFAEWELIVVDDGSSDETFEIVDGYLNQHANIRYMKHRNRKAALSRNAGIQAAFGRYITFLDSDDLYLPEHLESRLHLLESMPEVRLISGGFVCEGDPWVRDRDDPEKLIHVSECIAGATMFGRRELFLDIGGFRALDYAEDTDLWERAARSHKVLKIDQPVSYIYRRSPGSITRTYKPAKPLEHHHHHH”, “not failed”; to “MLTQANIPSWYEGLNKSGLTPPGPVFSIVWSILYALLAIVGWVLWCSRNESEMRSVFYLYSVQMLMNWAWTPLFFVLHWTGLSFLWILVMAGLTGLLMFSQTNKKKSLAILLLPYLIWLLFAAYLNGVIWLLN”, “failed”.
In the case of “MLTQFLNLLATIISVISLLIVTYGALIAIISFIINELKRVTGAYTPTNIRKLRAVFGTYLLLGLEFLIASDILKTVLEPTMNELIILGGIVVVRTILSVFLNKEIKELETENN” it was “failed”.
For “MLTQTLDSPSGAKRLRVMSRHEREPVSQSKTDFSQQTRWMLAVRDNRDRLAFAALFDHFAPRLKGFVIRSGTPAHQAEEIVQDVMLTIWRKAAMFDPHRAQVSAWIYQIARNRQIDIARKENRPMPEELKEEPGTEPDASQILGLEQEAGQLKQALANLKPEQREIIEKAYLGELTHQEISAQTGLPLGTIKSRIRLGLERLRYELKDLKQ”, the protein production result was “failed”.
Take “MLTRAIKTQLVLLTVLAVIAVVVLGWYFLRIPSLVGIGRYTLYAELPRSGGLYRTANVTYRGITIGKVTGVEPTERGARATMSIDNGYQIPTDASANVHSVSAVGEQFVDLVSTRTSGPYLRHGQTITTTTVPSQIGPALDAANRGLAVLPKDRVASVLHEASEAVGGLGSSLNRLIEATQAIAHDVRGSLEDIDDIIERSAPIIDSQVNSGNEIARWAANLNTLAAQTAQTDPAVRSILANAAPTADQVNATFSDVRESLPQTLANLEVVIDMLKRYHNGVEQALVFLPQSGAIAQSVTTEFPGQAGLGVGGLALNQPPPCLTGFLPASEWRSPADTSTAPLPKGTYCRIPMDASNVVRGARNNPCVDVPGKRAATPRECRSNEAYVPGGTNPWYGDPNQMLSCPAPAARCDQPVKPGQVIPAPSVNNGINPLPADQLPGTPPPVNDPLQRPGSGTVQCNGQQPNPCVYTPSTFPTTIYDVQSGKVVAPDGVVYSVEASTHAGADGWKVMLAPTG”: the protein production entry is listed as “failed”.
As to “MLTTLAIGNYRSINHLVLPLSQLNLVTGANGSGKSNLYKALRLLAETAQGGVVEALAREGGLDSTWWAGPETSARMRRGEVPIQGQHPSEVRRLRLGFATEDLGFAITLGLPIPLPYPSAFMLDPEIKCEAIWGAGAYRPSSLLVERKNALVRAREGNRWAVLDQHADSGESFFNIVGRPRQAPEIGDLRAFINSWRFYDHFRIDRDAPCRQPQLGTRSPVLHHDGRNLASALQTIIEIGDVEDLEEALNDAFPGSRLEINAPPGGLFSVRLHQHGLLRPLEGAELSDGTLRYLLLMAALLTPRPPSLMVLNEPETSLHADLLPALARLIIRASRRSQVWVVSHSAPLINALAACDGCNVLELEKIQGQTQLRGVGLLDEPLWRWAD”, the protein production entry was “failed”.
Consider “MLTVHRDARDYQIIFLCSFLSLGILARDWSLSPLVIAVVLATALTVQSLFTINQQGNFSRWFSLDTWQSLWRHQGWKSALITGLGLCLLLRANHLSTLILAASLAIASKFLLQAWGKHWFNPANFGIIAALTLTGDAWVSPGQWGTTLWLGAVFLAAGGLVLGKVGRWDTSIMFLAVYAGLDLARNAWLGWPPEVSFHHLENGSLLVFALFMLTDPRSIPNARSSRLIWATAIAIFSLILQYHFYLPTALFWALFCLSPLTVLLDRQFPAPRFQWWQKKNPVPSN”, for which the protein production entry is given as “failed”.
On to “MLTYYLKTEIQLLFRKKVYLVLSILVPLALYLLFTSILDLPEEAKKPFYKEYMYSMTAFSLSSFCLMQFPIDLINEKTTGWYKNLMRTPLQSHQYYMAKVFKMMFQFILAILLIFIVAHFMKGVEMSTSDWLLSGLILWIGASTFLSVGVLISQINEIQKASSIGNILYLSLAILGGLWFPVSQFPEWMRKIAYVTPTYHLKQVAYEIGKGGTLDYLSLFVLVGYSILFLVVALIIQKRRDVDI”, for which the protein production entry is recorded as “failed”.
As to “MLVLIMWLCQQRSCRRLKRGDPMAQFENNRQRLFVPAVAPLYNSTHDLVETILRVAAGLLLVTHGFGKIVNPFGAVGMVESLGFHPGVFWSPLLAATEFFGGILVAIGLFTRPASFAAMIVLLVTVYFHGIVKAEGLGGAEKSILWAAIFLFFAVRGGNRHSVDAKLTREF”, the protein production entry is recorded as “failed”.
In the case of “MLVNFIKNFIPHRFYSSKTEIPVVRLHGAIIDSSSSIARTLSLGRCANLLDKAFAYKKAPAVAVIINSPGGSPVQSRLIFKRIRDLAEEKKKQVLMFIEDIAASGGYMIACAGDEIFADPSSIVGSIGVVSASFGFPELLKKIGIERRVYTAGKNKVTLDPFQPEKKTDIEHLKSLQLEVHKTFIDLVKERRAEKLSNDPNIFTGMFWSGKKSVELGLIDGLNDVRSVIKERFGDDTKLRLIIPPKSLFGPKTPSGVTAHAVHTAIDSALMVAQERALWQYYGLLEHHHHHH”, the protein production entry is “not failed”.
Regarding “MLVNGQHYHLINDISGEKPVLLMLHGFTGSSETFQDSISLLKEHFSIIAPDLLGHGKTSCPKEVARYSIENICDDLASILHQLKIDSCFVLGYSMGGRVATAFAAKYKELVRGLVLVSSSPGLRDEKARASRISADNRLADTLDADGIEPFVAYWENLALFASQKNLPFALKKRIRLERLAQNPHGLAKSLRGMGTGKQPSYWENLADFTFPVLLITGNLDEKFEKIAREMKQLLPNSTHVTVQEAGHAVYLEQPNIFSSQLIYWLEGILKEEEK”, the protein production entry was “failed”.
Turning to “MLVSEAVLPLLFYGILTPVYQVILRGKISNVKGFYLAWITAPFLVGYFFYSTLVEVFLLLIFNIIGYIIVLKNKYKYIFPLLLFSAVIIQIFYILTTLHTIHG”, the protein production result is listed as “failed”.
With “MLVSLLGILLSVIVGFVVTLISTKWVIGLCKKRGFTGKDINKLTKDDVPVLGGIGIVAGFVAGSFTFLLTSYNLSPGIENVVVSILLSSLIIGFLGLLDDIFNISQATRAFLPIFASIPLILYSVGHTIISIPFLGKVNFGILFYIIILPATLTITANAFNMLEGLNGLGAGMGLIMALALAYIGLKSGGTSFYAGIVSIILASVLFGFLIFNFYPAKTFPGNIGTYFIGSVIGSIGISGYMYTALFFLYLPYVIEFVLKAKTRFKGVSFGKIDDQGYLHWDSKPNSLTHIVMRIGKFKEYHIVLIIWGIEILFAILAVVFQTVTITI”, the protein production result was “failed”.
